Test results from publication PMC3553982 (Nucleic Acids Research, 2012).

How the values were obtained:
[1] = target: 5-FAM labeled Rim1 (FAM-Rim1) (S. cerevisiae) (UniProt P32445); test: fluorescence polarisation
[2] = target: 5-FAM labeled Rim1ΔC18 (FAM-Rim1ΔC18) (S. cerevisiae) (UniProt P32445); test: fluorescence polarisation
[3] = target: Human mitochondrial SSB (HsmtSSB) (human) (UniProt Q04837); test: pull-down
Rim1ΔC18 (S. cerevisiae) = Rim1ΔC18 (S. cerevisiae) (UniProt P32445); test: pull-down
SEC-MALS = target: the molecule itself; test: SEC-MALS
Rim1 = target: T1, Rim1 (Saccharomyces cerevisiae, UniProt P32445 18-135); test: fluorescence anisotropy
T1 sequence: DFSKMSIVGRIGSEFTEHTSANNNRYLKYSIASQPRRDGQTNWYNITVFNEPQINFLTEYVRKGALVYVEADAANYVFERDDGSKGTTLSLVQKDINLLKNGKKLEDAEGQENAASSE

Rim1ΔC18 = target: T2, Rim1ΔC18 (Saccharomyces cerevisiae, UniProt P32445 18-117, del118-135); test: fluorescence anisotropy
T2 sequence: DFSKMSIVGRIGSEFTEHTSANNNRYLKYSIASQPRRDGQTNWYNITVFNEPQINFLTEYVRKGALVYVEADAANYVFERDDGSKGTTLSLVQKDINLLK

Sequence of Human mitochondrial SSB (HsmtSSB) (human) (Q04837 17-148): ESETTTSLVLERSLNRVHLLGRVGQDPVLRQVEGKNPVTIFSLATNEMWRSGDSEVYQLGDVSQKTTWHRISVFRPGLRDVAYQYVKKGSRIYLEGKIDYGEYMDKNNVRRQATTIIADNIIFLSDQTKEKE

“Pif1 (recombinant, nuclear form) (from UniProt P07271 46-859) (enzyme)” showed a Kd [1] of 690 nM, a Kd [2] of 2500 nM and a relative amount of Pif1 co-precipitated (Pif1 bound to Rim1 taken as 1) [3] of 0.63. For the same molecule, the relative amount of Pif1 co-precipitated (Pif1 bound to Rim1 taken as 1) (Rim1ΔC18 (S. cerevisiae)) was 0.45.

B1: Rim1ΔC18 (domain or fragment, S. cerevisiae, UniProt P32445 18-117, looked up)
chain: T2 sequence
B1 was tested, and the “stoichiometry N” value (SEC-MALS) was 4.

B2: 3'F-T70 (ssDNA)
DNA: TTTTTTTTTTTTTTTTTTTTTTTTTTTTTTTTTTTTTTTTTTTTTTTTTTTTTTTTTTTTTTTTTTTTTT
B2 showed a Kd (Rim1) of less than 1 nM and a Kd (Rim1ΔC18) of less than 1 nM.
